These results are taken from PMC6770189, “Multipoint TvDAAO Mutants for Cephalosporin C Bioconversion” (International Journal of Molecular Sciences, 2019).

In series [1] the target is T1, TvDAAO (Trigonopsis variabilis, UniProt Q99042).
T1 construct: gene DAO1; FAD-containing; no tag mentioned
The experiment in a line: horseradish peroxidase / ABTS coupled assay, […] nm. The format is biochemical. The note with it: 0.05 M potassium phosphate pH 8.0, 30 °C, air saturated; read-out: wt-TvDAAO / KM.

Substrate in series [2]: [H][C@]12SCC(COC(C)=O)=C(C(=O)O)N1C(=O)[C@H]2NC(=O)CCC[C@@H](N)C(=O)O
Description: CPC consumption by HPLC, initial rates. The series is classed as biochemical, Trigonopsis variabilis. The following applies: 0.1 M potassium phosphate pH 8.0, 30 °C, air saturated. The text has this: CPC consumption by HPLC, initial rates on TvDAAO

Substrate in series [3]: CSCC[C@@H](N)C(=O)O
Description: purified protein. The note with it: 0.05 M potassium phosphate pH 8.0, 30 °C, air saturated. The series is classed as biochemical, Trigonopsis variabilis.

Substrate in series [4]: NC(=O)C[C@@H](N)C(=O)O
Description: purified protein. The following applies: 0.05 M potassium phosphate pH 8.0, 30 °C, air saturated.

Substrate in series [5]: CC(C)C[C@@H](N)C(=O)O
Description: purified protein. The following applies: 0.05 M potassium phosphate pH 8.0, 30 °C, air saturated.

Substrate in series [6]: C[C@@H](N)C(=O)O
The experiment in a line: purified protein. The note with it: 0.05 M potassium phosphate pH 8.0, 30 °C, air saturated.

Substrate in series [7]: CC(C)[C@@H](N)C(=O)O
The experiment in a line: purified protein. The note with it: 0.05 M potassium phosphate pH 8.0, 30 °C, air saturated.

As to `C[C@H](O)[C@@H](N)C(=O)O` [D-Thr], in series [1], the Km is 11000 µM.

Consider `CSCC[C@@H](N)C(=O)O` [D-Met], for which the Km in series [1] is 460 µM.

With `N[C@H](Cc1ccc(O)cc1)C(=O)O` [D-Tyr], in series [1], the Km was 450 µM.

`N[C@H](Cc1ccccc1)C(=O)O` [D-Phe]: in series [1], the Km came out at 370 µM.

On to `N[C@H](CO)C(=O)O` [D-Ser], for which the Km in series [1] amounted to 37000 µM.

`N[C@H](Cc1c[nH]c2ccccc12)C(=O)O` [D-Trp]: the Km in series [1] came to 490 µM.

Take `NCCCC[C@@H](N)C(=O)O` [D-Lys]: in series [1], the Km was 29000 µM.

B1: TvDAAO (Trigonopsis variabilis; C108F/C298Q/E32R/F33D/F54S/M156L) (protein)
chain: MAKIVVIGAGVAGLTTALQLLRKGHEVTIVSRDTPGDLSIGYTSPWAGANWLTSYDGGKLADYDAVSYPILRELARSSPEAGIRLISQRSHVLKRDLPKLEVAMSAIFQRNPWFKNTVDSFEIIEDRSRIVHDDVAYLVEFRSVCIHTGVYLNWLLSQCLSLGATVVKRRVNHIKDANLLHSSGSRPDVIVNCSGLFARFLGGVEDKKMYPIRGQVVLVRNSLPFMASFSSTPEKENEDEALYIMTRFDGTSIIGGCFQPNNWSSEPDPSLTHRILSRALDRFPELTKDGPLDIVREQVGHRPGREGGPRVELEKIPGVGFVVHNYGAAGAGYQSSYGMADEAVSYVERALTRPNL
notes: FAD-containing; no tag mentioned
Consider B1, for which, in series [2], the Km was 1400 ± 300 µM, the kcat is 68 ± 0.5 s⁻¹ and the catalytic efficiency (kcat/Km) was 50000 ± 9000 M⁻¹ s⁻¹.

B2: TvDAAO (Trigonopsis variabilis; C108F/E32R/F33D) (protein)
chain: MAKIVVIGAGVAGLTTALQLLRKGHEVTIVSRDTPGDLSIGYTSPWAGANWLTFYDGGKLADYDAVSYPILRELARSSPEAGIRLISQRSHVLKRDLPKLEVAMSAIFQRNPWFKNTVDSFEIIEDRSRIVHDDVAYLVEFRSVCIHTGVYLNWLMSQCLSLGATVVKRRVNHIKDANLLHSSGSRPDVIVNCSGLFARFLGGVEDKKMYPIRGQVVLVRNSLPFMASFSSTPEKENEDEALYIMTRFDGTSIIGGCFQPNNWSSEPDPSLTHRILSRALDRFPELTKDGPLDIVRECVGHRPGREGGPRVELEKIPGVGFVVHNYGAAGAGYQSSYGMADEAVSYVERALTRPNL
notes: as for B1
Regarding B2, in series [2], the Km came out at 1150 ± 80 µM, the kcat was found to be 25.5 ± 1.4 s⁻¹ and the kcat/Km was found to be 22000 ± 2000 M⁻¹ s⁻¹.

B3: TvDAAO (Trigonopsis variabilis; C108F/F54S/M156L) (protein)
chain: MAKIVVIGAGVAGLTTALQLLRKGHEVTIVSEFTPGDLSIGYTSPWAGANWLTSYDGGKLADYDAVSYPILRELARSSPEAGIRLISQRSHVLKRDLPKLEVAMSAIFQRNPWFKNTVDSFEIIEDRSRIVHDDVAYLVEFRSVCIHTGVYLNWLLSQCLSLGATVVKRRVNHIKDANLLHSSGSRPDVIVNCSGLFARFLGGVEDKKMYPIRGQVVLVRNSLPFMASFSSTPEKENEDEALYIMTRFDGTSIIGGCFQPNNWSSEPDPSLTHRILSRALDRFPELTKDGPLDIVRECVGHRPGREGGPRVELEKIPGVGFVVHNYGAAGAGYQSSYGMADEAVSYVERALTRPNL
notes: as for B1
In the case of B3, in series [2], the Km is 1900 ± 600 µM, the catalytic constant (kcat) is 119 ± 7 s⁻¹ and the specificity constant (kcat/Km) was found to be 60000 ± 20000 M⁻¹ s⁻¹.

B4: TvDAAO (Trigonopsis variabilis; C108F/E32R/F33D/F54S) (protein)
chain: MAKIVVIGAGVAGLTTALQLLRKGHEVTIVSRDTPGDLSIGYTSPWAGANWLTSYDGGKLADYDAVSYPILRELARSSPEAGIRLISQRSHVLKRDLPKLEVAMSAIFQRNPWFKNTVDSFEIIEDRSRIVHDDVAYLVEFRSVCIHTGVYLNWLMSQCLSLGATVVKRRVNHIKDANLLHSSGSRPDVIVNCSGLFARFLGGVEDKKMYPIRGQVVLVRNSLPFMASFSSTPEKENEDEALYIMTRFDGTSIIGGCFQPNNWSSEPDPSLTHRILSRALDRFPELTKDGPLDIVRECVGHRPGREGGPRVELEKIPGVGFVVHNYGAAGAGYQSSYGMADEAVSYVERALTRPNL
notes: as for B1
On to B4, for which, in series [2], the Km was 1900 ± 400 µM, the catalytic constant (kcat) amounted to 88 ± 10 s⁻¹ and the kcat/Km was found to be 45000 ± 11000 M⁻¹ s⁻¹.

B5: TvDAAO (Trigonopsis variabilis; C108F/C298N/E32R/F33D/F54S/M156L) (protein)
chain: MAKIVVIGAGVAGLTTALQLLRKGHEVTIVSRDTPGDLSIGYTSPWAGANWLTSYDGGKLADYDAVSYPILRELARSSPEAGIRLISQRSHVLKRDLPKLEVAMSAIFQRNPWFKNTVDSFEIIEDRSRIVHDDVAYLVEFRSVCIHTGVYLNWLLSQCLSLGATVVKRRVNHIKDANLLHSSGSRPDVIVNCSGLFARFLGGVEDKKMYPIRGQVVLVRNSLPFMASFSSTPEKENEDEALYIMTRFDGTSIIGGCFQPNNWSSEPDPSLTHRILSRALDRFPELTKDGPLDIVRENVGHRPGREGGPRVELEKIPGVGFVVHNYGAAGAGYQSSYGMADEAVSYVERALTRPNL
notes: as for B1
With B5, in series [3], the Km was determined as 1400 µM and the turnover number (kcat) came out at 41 s⁻¹. In series [2], the Km stood at 2900 ± 500 µM, the kcat was 121 ± 15 s⁻¹ and the kcat/Km stood at 42000 ± 8000 M⁻¹ s⁻¹.

B6: TvDAAO (Trigonopsis variabilis) (protein)
chain: MAKIVVIGAGVAGLTTALQLLRKGHEVTIVSEFTPGDLSIGYTSPWAGANWLTFYDGGKLADYDAVSYPILRELARSSPEAGIRLISQRSHVLKRDLPKLEVAMSAICQRNPWFKNTVDSFEIIEDRSRIVHDDVAYLVEFRSVCIHTGVYLNWLMSQCLSLGATVVKRRVNHIKDANLLHSSGSRPDVIVNCSGLFARFLGGVEDKKMYPIRGQVVLVRNSLPFMASFSSTPEKENEDEALYIMTRFDGTSIIGGCFQPNNWSSEPDPSLTHRILSRALDRFPELTKDGPLDIVRECVGHRPGREGGPRVELEKIPGVGFVVHNYGAAGAGYQSSYGMADEAVSYVERALTRPNL
notes: as for B1
As for B6, the Km in series [4] was found to be 23000 µM; in series [5], 400 µM; in series [6], 17000 µM; in series [7] it was 14000 µM; in series [2], 1400 ± 400 µM. In addition, the kcat in series [4] stood at 62 s⁻¹; in series [5] it was 29 s⁻¹; in series [6], 109 s⁻¹; in series [7] it was 85 s⁻¹; in series [2], 26 ± 3 s⁻¹. Further, the kcat/Km in series [2] was found to be 18000 ± 5000 M⁻¹ s⁻¹.

B7: TvDAAO (Trigonopsis variabilis; C108F/C298G/E32R/F33D/F54S/M156L) (protein)
chain: MAKIVVIGAGVAGLTTALQLLRKGHEVTIVSRDTPGDLSIGYTSPWAGANWLTSYDGGKLADYDAVSYPILRELARSSPEAGIRLISQRSHVLKRDLPKLEVAMSAIFQRNPWFKNTVDSFEIIEDRSRIVHDDVAYLVEFRSVCIHTGVYLNWLLSQCLSLGATVVKRRVNHIKDANLLHSSGSRPDVIVNCSGLFARFLGGVEDKKMYPIRGQVVLVRNSLPFMASFSSTPEKENEDEALYIMTRFDGTSIIGGCFQPNNWSSEPDPSLTHRILSRALDRFPELTKDGPLDIVREGVGHRPGREGGPRVELEKIPGVGFVVHNYGAAGAGYQSSYGMADEAVSYVERALTRPNL
notes: as for B1
As to B7, in series [2], the Km was 800 ± 200 µM, the kcat was found to be 65 ± 5 s⁻¹ and the kcat/Km worked out at 79000 ± 15000 M⁻¹ s⁻¹.

B8: TvDAAO (Trigonopsis variabilis; C108F/E32R/F33D/F54S/M156L) (protein)
chain: MAKIVVIGAGVAGLTTALQLLRKGHEVTIVSRDTPGDLSIGYTSPWAGANWLTSYDGGKLADYDAVSYPILRELARSSPEAGIRLISQRSHVLKRDLPKLEVAMSAIFQRNPWFKNTVDSFEIIEDRSRIVHDDVAYLVEFRSVCIHTGVYLNWLLSQCLSLGATVVKRRVNHIKDANLLHSSGSRPDVIVNCSGLFARFLGGVEDKKMYPIRGQVVLVRNSLPFMASFSSTPEKENEDEALYIMTRFDGTSIIGGCFQPNNWSSEPDPSLTHRILSRALDRFPELTKDGPLDIVRECVGHRPGREGGPRVELEKIPGVGFVVHNYGAAGAGYQSSYGMADEAVSYVERALTRPNL
notes: as for B1
In the case of B8, in series [2], the Km was determined as 1600 ± 300 µM, the turnover number (kcat) came out at 106 ± 9 s⁻¹ and the kcat/Km was determined as 66000 ± 12000 M⁻¹ s⁻¹.

By kcat is commonly meant the number of substrate molecules converted per active site and unit of time at saturation. The term kcat/Km denotes the turnover number divided by the Michaelis constant.
